The numbers were not newly measured in patent US20080125354A1, “SELECTIVE INHIBITION OF MATRIX METALLOPROTEINASES” (Florida Atlantic University, priority 2005, published 2008), which cites them from elsewhere.

One data set concerns the target T1, MMP-13 (Homo sapiens, UniProt P45452).
T1 construct: purchased R&D Systems (Minneapolis, Minn.)
The conditions noted are these: 30° C., 40 nM enzyme, 40 μM substrate.

The target in a further data set is MMP-14 (Homo sapiens, UniProt P50281). The following applies: 30° C., 40 nM enzyme, 40 μM substrate.
In data set [1] the target is T2, MMP-1 (Homo sapiens, UniProt P03956).
T2 construct: made in house
T2 sequence (P03956 100-469): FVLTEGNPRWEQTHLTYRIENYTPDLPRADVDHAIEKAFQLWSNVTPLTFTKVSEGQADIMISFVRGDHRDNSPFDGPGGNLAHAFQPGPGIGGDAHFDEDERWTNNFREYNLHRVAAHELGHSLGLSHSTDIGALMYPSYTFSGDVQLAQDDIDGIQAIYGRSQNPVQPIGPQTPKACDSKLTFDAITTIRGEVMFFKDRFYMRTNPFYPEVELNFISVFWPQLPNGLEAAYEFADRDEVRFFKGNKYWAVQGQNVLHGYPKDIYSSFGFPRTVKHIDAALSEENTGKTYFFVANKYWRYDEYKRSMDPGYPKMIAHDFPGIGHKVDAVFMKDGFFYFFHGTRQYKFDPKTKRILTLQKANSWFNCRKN
The following applies: 30° C., 40 nM enzyme, 40 μM substrate.

The next data set concerns the target T3, MMP-3 (Homo sapiens, UniProt P08254).
T3 construct: made in house
The following applies: 30° C., 40 nM enzyme, 40 μM substrate.

Data set [2] addresses T4, MMP-2 (Homo sapiens, UniProt P08253).
T4 sequence (P08253 110-660): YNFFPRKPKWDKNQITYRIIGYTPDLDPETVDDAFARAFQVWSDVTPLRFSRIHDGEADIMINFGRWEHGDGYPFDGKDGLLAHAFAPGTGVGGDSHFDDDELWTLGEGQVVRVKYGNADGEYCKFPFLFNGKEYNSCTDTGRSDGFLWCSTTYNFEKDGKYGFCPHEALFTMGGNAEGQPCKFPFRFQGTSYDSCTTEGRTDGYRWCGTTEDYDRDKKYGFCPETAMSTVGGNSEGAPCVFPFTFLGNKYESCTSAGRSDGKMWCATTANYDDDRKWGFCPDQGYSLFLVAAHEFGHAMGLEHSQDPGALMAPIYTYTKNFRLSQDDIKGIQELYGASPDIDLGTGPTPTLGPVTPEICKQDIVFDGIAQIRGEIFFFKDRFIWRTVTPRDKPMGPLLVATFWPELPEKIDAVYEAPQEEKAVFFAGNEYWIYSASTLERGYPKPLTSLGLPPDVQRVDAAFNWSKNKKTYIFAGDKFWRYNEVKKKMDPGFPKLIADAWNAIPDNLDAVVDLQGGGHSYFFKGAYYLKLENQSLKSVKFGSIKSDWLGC
The conditions noted are these: 30° C., 40 nM enzyme, 40 μM substrate.

The target of the next data set is T5, MMP-8 (Homo sapiens, UniProt P22894).
T5 construct: made in house; host or cells: CHO-K1 cells
T5 sequence (P22894 101-467, species assumed): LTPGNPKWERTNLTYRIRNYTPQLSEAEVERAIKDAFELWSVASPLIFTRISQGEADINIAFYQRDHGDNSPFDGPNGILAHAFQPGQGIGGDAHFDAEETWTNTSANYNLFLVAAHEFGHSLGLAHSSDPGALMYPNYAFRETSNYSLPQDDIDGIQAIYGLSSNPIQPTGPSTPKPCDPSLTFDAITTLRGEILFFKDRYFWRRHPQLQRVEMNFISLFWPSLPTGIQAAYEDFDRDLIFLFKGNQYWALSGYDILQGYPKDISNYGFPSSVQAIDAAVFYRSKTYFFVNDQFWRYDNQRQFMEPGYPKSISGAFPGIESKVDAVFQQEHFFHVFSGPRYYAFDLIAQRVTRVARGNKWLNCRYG
The following applies: 30° C., 40 nM enzyme, 40 μM substrate.

Data set [3] deals with T4, MMP-2. The conditions noted are these: MMP-2, earlier study.
For data set [4], the target named is T2, MMP-1. The conditions noted are these: MMP-1, second earlier study.
The target of a further data set is MMP-9 (Homo sapiens, UniProt P14780). The following applies: 30° C., 40 nM enzyme, 40 μM substrate.
MMP-9, sequence (P14780 94-707): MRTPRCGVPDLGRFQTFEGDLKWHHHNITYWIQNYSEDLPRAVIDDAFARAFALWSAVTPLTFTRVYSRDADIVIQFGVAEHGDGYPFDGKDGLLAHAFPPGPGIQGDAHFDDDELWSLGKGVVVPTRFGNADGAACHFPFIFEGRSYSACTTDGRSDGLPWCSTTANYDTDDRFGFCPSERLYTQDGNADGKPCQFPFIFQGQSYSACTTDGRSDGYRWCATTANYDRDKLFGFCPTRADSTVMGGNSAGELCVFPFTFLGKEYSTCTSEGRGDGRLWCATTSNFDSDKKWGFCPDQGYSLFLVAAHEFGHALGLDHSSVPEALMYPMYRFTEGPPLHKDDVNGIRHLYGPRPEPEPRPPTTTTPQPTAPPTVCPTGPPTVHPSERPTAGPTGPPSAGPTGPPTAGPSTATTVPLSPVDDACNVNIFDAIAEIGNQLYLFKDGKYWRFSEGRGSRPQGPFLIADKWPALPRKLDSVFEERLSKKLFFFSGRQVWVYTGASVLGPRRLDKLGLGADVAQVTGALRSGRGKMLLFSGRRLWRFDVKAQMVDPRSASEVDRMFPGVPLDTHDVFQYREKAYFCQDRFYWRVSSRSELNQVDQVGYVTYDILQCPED

T3 sequence (P08254 100-477, species assumed): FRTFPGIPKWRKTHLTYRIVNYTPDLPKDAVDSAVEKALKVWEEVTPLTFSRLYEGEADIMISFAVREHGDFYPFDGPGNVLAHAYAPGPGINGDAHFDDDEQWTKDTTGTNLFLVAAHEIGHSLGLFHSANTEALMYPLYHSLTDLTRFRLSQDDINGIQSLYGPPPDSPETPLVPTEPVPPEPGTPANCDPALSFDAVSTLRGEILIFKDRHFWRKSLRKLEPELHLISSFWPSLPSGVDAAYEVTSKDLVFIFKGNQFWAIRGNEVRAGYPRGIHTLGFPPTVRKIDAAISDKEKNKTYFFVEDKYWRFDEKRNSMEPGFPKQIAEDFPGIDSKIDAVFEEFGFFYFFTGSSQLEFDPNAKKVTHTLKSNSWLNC

As to “(Gly-Pro-Hyp)5-Gly-Pro-Gln-Gly˜Leu-Ala-Gly-Gln-Arg-Gly-Ile-Arg-(Gly-Pro-Hyp)5-NH2 [SEQ ID NO: 6]”, in the data set with MMP-13, the “hydrolysis of the substrate by MMP-13 (in words)” value is “hydrolyzed the substrate efficiently”. The “hydrolysis of the substrate by MMP-14 (in words)” value with MMP-14 was “hydrolyzed the substrate efficiently”. In addition, the “hydrolysis of the substrate by MMP-1 (in words)” value in the data set with MMP-1 [1] is “hydrolyzed the substrate efficiently”. In the data set with MMP-3, the “hydrolysis of the substrate by MMP-3 (in words)” value is on record as “did not”. Besides, the “hydrolysis of the substrate by MMP-2 (in words)” value with MMP-2 [2] is “hydrolyzed the substrate efficiently”. For the same substance, the “hydrolysis of the substrate by MMP-8 (in words)” value with MMP-8 is reported as “hydrolyzed the substrate efficiently”.

For orientation: IC50 means the concentration that gives 50% inhibition. For (Pro-Pro-Gly)6-NHOH, on MMP-2 [3], the IC50 is 160 µM.

Take “hydroxamate-containing peptidomimetic onto the N-terminus of (Gly-Pro-Hyp)-4-Gly-Pro-Pro-Gly-Ser-Ser [C-terminally branched construct of a second earlier study carrying a hydroxamate-containing peptidomimetic]”: the concentration for half-maximal inhibition (IC50) at MMP-1 [4] was roughly 0.009 µM.

With (Pro-Pro-Gly)12-NHOH, the IC50 at MMP-2 [3] is 90 µM.

With “C6-(Gly-Pro-Hyp)4-Gly-Pro-Pro-Gly˜Val-Val-Gly-Glu-Gln-Gly-Glu-Gln-Gly-Pro-Pro-(Gly-Pro-Hyp)4-NH2 [SEQ ID NO: 5]”, the “time to hydrolysis of the substrate by MMP-9” value with MMP-9 is given as no more than 1 h. The “hydrolysis of the substrate by MMP-1 (in words)” value with MMP-1 [1] is “did not cleave the substrate even after 24 h”.
